Results: article PMC4525147
Where no end group is shown, it is not given here.

Key:
[1] = target: gp41, the Xenopus laevis ZP3, of the vitelline envelope (Xenopus laevis)

Binder | Kd of the concentration dependence of the inhibition of in vitro fertilization [1] [nM] | in vitro fertilization rate after pretreatment of the VE with the peptide at 4 μM, normalised to control [1] | in vitro fertilization rate after preincubation of the VE with gpp2 (concentration series, highest at 4 μM), normalised to control (dicalcin (wild type))
SFSCNQKNK (also: biotin) [dcp11, dicalcin-derived peptide] | 33 | 25 % of control | –
AALCKL (also: biotin) [dcp15, dicalcin-derived peptide] | 46 | 32 % of control | –
RYEIINQNGCLVDGKLDDSSSAF (also: biotin) [gpp2, gp41-derived peptide] | – | – | 132 % of control
